Measured values taken from CN106754739A.

Molecular target: 原核表达的重组人P53蛋白 (recombinant human P53 expressed in E. coli BL21 from PET28a-P53, Ni-NTA purified) (human) (UniProt P04637)
Assay: direct ELISA, purified antibody diluted 1:200 to 1:12800 on plates coated with purified P53 (10 μg/ml), goat anti-mouse IgG-HRP, OD450

UniProt P04637, sequence (P04637 whole entry): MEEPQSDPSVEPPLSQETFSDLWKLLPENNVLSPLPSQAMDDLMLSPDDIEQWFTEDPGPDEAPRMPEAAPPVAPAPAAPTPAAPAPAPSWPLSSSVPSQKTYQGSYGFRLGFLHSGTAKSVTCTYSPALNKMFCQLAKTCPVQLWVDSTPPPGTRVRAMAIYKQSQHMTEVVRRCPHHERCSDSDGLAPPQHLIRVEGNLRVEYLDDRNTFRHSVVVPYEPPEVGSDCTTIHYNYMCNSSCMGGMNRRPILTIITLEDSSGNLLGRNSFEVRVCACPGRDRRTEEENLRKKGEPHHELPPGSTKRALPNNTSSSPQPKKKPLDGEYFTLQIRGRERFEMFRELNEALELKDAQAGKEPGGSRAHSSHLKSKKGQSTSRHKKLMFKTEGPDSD

ELISA titer (滴度) (dilution factor (1:x)): > 10000
B1: 小鼠抗人P53单克隆抗体6C4 (mouse anti-human P53 monoclonal antibody from hybridoma 6C4, CGMCC No. 6916) (antibody, part only; not given: light chain variable region, V domains shown, part only)
VH: DFCWSLSGVGVGCHLVTNSGKGLEWLAHIWWDDDKSYNPALKSRLTISKDTSTNQVFLKIASVDTADTATYYCARMTTATFAYWGQGTLVTVSPASTTPPISQ
